Target: integrin α5β1 ectodomain (α5 F1–Y954/β1 Q1–D708) (UniProt P08648;P05556)
Assay: fluorescence polarisation

integrin α5β1 ectodomain (α5 F1–Y954/β1 Q1–D708), sequence (P08648 42-995, chain 1 of 2): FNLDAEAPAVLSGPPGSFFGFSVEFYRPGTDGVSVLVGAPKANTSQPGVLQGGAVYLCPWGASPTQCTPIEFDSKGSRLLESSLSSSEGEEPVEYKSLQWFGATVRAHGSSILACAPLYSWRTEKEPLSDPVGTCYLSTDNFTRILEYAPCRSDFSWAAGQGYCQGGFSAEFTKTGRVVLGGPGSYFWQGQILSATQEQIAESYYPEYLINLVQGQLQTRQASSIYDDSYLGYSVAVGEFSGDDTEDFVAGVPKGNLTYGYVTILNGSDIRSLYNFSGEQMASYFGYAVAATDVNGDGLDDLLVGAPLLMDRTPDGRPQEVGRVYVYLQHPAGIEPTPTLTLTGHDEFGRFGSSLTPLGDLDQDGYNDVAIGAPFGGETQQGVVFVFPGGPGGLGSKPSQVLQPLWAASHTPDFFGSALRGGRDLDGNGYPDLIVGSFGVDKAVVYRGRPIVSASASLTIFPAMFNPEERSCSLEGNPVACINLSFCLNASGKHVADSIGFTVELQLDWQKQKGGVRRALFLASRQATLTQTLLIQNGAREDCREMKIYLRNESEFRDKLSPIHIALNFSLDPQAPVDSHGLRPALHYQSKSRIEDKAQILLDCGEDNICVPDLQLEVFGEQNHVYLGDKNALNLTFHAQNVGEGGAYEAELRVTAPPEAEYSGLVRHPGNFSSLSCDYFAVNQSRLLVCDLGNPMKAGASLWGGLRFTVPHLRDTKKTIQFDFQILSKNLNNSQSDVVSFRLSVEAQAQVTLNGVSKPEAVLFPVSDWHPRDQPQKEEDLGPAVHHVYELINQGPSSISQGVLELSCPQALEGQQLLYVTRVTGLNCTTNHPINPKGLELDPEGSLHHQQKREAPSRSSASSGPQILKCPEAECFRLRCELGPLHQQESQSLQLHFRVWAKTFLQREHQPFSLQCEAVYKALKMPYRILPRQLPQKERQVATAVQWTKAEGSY
integrin α5β1 ectodomain (α5 F1–Y954/β1 Q1–D708), sequence (P05556 21-728, chain 2 of 2): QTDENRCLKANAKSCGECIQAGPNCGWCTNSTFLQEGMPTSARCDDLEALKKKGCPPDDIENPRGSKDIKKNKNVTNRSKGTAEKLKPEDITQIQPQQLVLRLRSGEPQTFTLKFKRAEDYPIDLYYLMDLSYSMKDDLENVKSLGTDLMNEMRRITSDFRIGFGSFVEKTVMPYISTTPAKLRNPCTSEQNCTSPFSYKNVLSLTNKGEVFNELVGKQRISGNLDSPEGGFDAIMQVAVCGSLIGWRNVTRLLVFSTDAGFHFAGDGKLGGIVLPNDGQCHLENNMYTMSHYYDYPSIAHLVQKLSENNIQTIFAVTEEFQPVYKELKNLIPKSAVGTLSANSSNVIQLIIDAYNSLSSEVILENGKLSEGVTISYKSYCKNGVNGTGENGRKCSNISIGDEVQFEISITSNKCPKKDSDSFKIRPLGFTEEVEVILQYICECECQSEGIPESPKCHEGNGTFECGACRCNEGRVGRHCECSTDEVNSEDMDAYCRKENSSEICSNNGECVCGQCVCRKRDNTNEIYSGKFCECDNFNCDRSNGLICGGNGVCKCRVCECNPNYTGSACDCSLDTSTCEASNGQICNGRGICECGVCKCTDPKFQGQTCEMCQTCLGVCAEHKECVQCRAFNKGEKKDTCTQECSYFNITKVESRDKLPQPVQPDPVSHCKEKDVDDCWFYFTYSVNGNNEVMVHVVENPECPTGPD

- binding result: binds
B1: fibronectin fragment Fn10 (V1416–T1509) (domain or fragment)
chain: not shown

Source: paper PMC9483561 (The Journal of Biological Chemistry, 2022)
